Results on two molecules are retold here after patent US6979673 (University of Pennsylvania, dated 2005).

A value given as a limit tells only on which side of the number the result lay.

The chains are these.
T1: PRL (human prolactin, untagged or form not specified: serum PRL; PRL added to cell cultures) (human, UniProt P01236 29-227)
T1 sequence (looked up): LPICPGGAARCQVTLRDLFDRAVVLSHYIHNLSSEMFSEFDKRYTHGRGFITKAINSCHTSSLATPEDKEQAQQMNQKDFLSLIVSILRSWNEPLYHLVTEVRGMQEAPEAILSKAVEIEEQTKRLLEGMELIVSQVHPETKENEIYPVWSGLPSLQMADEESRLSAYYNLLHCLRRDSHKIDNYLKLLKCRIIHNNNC

B1: His-tagged CypB (cyclophilin B, recombinant, V5/His-tagged, from Drosophila S2 cells) (enzyme)
chain: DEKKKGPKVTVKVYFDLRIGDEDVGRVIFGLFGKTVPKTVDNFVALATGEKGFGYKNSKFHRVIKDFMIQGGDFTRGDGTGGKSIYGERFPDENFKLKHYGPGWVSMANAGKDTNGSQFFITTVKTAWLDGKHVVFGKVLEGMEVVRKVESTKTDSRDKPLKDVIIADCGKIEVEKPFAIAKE
notes: also called wild-type CypB; sepharose-conjugated, recombinant CypB; not shown: C-terminal bifunctional V5/His-tag of vector pAc5/V5-HisA
B2: myc-tagged PRL (recombinant human prolactin from Drosophila S2 cells) (ligand, UniProt P01236 29-227, looked up, not shown: small tags and cut ends)
chain: T1 sequence (looked up)
notes: mature

Experiment [1] addresses T1, PRL (human prolactin, untagged or form …). Nature of the experiment: cell-based or functional assay.
The target of experiment [2] is growth hormone (GH) (human, UniProt P01241 27-217). Nature of the experiment: cell-based or functional assay.
The target in experiment [3] is B2. Nature of the experiment: co-immunoprecipitation of admixed purified proteins, with cyclosporin A against without.
Experimental: Immunoblots were blocked for one hour at room temperature with 5% milk in PBS containing 1% TWEEN-20 (PBST) and immunoblotted with a monoclonal anti-myc antibody (1:1000, mAb 9E10) for one hour. Immunoblots were analyzed by incubation with an anti-mouse secondary antibody conjugated to horseradish peroxidase (1:2000, Boehringer Mannheim) for one hour followed by incubation with ECL Plus (Amersham Pharmacia Biotech) amnd exposure to Biomax film (Kodak).
Experiment [4] addresses recombinant form of cyclophilin family member CypA (UniProt P62937 1-165, limits assumed). Nature of the experiment: co-immunoprecipitation of admixed recombinant proteins.

Chain of recombinant form of cyclophilin family member CypA (P62937 whole entry): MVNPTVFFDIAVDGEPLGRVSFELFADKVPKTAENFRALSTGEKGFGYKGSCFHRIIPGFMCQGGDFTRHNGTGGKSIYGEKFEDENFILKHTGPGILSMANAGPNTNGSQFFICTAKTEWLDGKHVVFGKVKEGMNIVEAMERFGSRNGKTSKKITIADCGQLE
Chain of growth hormone (GH) (P01241 27-217 limits assumed): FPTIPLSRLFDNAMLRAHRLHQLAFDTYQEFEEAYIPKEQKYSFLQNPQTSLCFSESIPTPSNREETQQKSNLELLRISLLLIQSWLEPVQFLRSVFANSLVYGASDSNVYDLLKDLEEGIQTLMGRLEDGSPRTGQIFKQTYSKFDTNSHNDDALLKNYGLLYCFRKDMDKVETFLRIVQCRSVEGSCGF

As to B1, in experiment [1], the “PRL-driven growth of Nb2 cells (3H-thymidine)” value was at most 8 fold. Further, the GH-driven proliferation in experiment [2] came out at 40 fold. Further, the “fold enhancement of the interaction on addition of CsA” value in experiment [3] is about 10 fold.

On to B2, for which the binding result in experiment [4] was “no binding”.
